Measurements taken from US20210087281A1 (AGOMAB THERAPEUTICS, published 2021).
Blank lines part the entries; values can stand above or below the binder they belong to.

Assays:
[1] = biological target: T1, native mouse MET on living cells (mouse, UniProt P16056 25-1379); test: cell-based or functional assay
[2] = biological target: T1, native mouse MET on living cells; test: cell-based or functional assay; remark: listed apart in the source
[3] = biological target: T1, native mouse MET on living cells; test: cell-based or functional assay; remark: listed apart in the source
[4] = biological target: T1, native mouse MET on living cells; test: cell-based or functional assay; remark: listed apart in the source
[5] = biological target: T2, native human MET on living cells (human, UniProt P08581 25-1390); test: cell-based or functional assay
[6] = biological target: T2, native human MET on living cells; test: cell-based or functional assay; remark: listed apart in the source
[7] = biological target: T2, native human MET on living cells; test: cell-based or functional assay; remark: listed apart in the source
[8] = biological target: T2, native human MET on living cells; test: cell-based or functional assay; remark: listed apart in the source
[9] = biological target: T2, native human MET on living cells; test: flow cytometry, A549 cells
Experimental: (§1) We also analysed whether chimeric anti-MET antibodies bound to native human and mouse MET in living cells. […] Antibody binding to cells was analysed by flow cytometry using phycoerythrin-conjugated anti-human IgG1 antibodies (eBioscience) and a CyAn ADP analyser (Beckman Coulter). As a positive control for human MET binding, we used a commercial mouse anti-human MET antibody (R&D Systems) and phycoerythrin-conjugated anti-mouse IgG1 antibodies (eBioscience).
(§2) As a positive control for mouse MET binding we used a commercial goat anti-mouse MET antibody (R&D Systems) and phycoerythrin-conjugated anti-goat IgG1 antibodies (eBioscience). […] Consistent with the data obtained in ELISA, maximal binding (EMAX) varied depending on antibody, but was similar in human and mouse cells.

[10] = biological target: T1, native mouse MET on living cells; test: flow cytometry, MLP29 cells
Experimental: as §1, §2

human MET ECD = biological target: T3, human MET ECD (human, UniProt P08581 25-932); test: ELISA, MET ECD in solid phase, mAb 0-20 nM
T3 construct: range 1-932; recombinant ECD made by the applicants; the stated range begins at residue 1, so it includes the signal peptide of the entry; also called hMET; hMET ECD
Experimental: (§3) Production (by transient transfection of mammalian cells) and purification (by protein A affinity chromatography) of the resulting chimeric llama-human IgG1 molecules was outsourced to U-protein Express. Binding of chimeric mAbs to MET was determined by ELISA using hMET or mMET ECD in solid phase and increasing concentrations of antibodies (0-20 nM) in solution. […] Binding capacity (EMAX) varied from antibody to antibody, possibly due to partial epitope exposure in the immobilized antigen, but was similar in the human and mouse setting.

mouse MET ECD = biological target: T4, mouse MET ECD (mouse, UniProt P16056 25-931); test: ELISA, MET ECD in solid phase, mAb 0-20 nM
T4 construct: range 1-931; recombinant ECD made by the applicants; the stated range begins at residue 1; also called mMET; mMET ECD
Experimental: as §3

[11] = biological target: T5, human MET-Fc (R&D Systems) (human, UniProt P08581 25-932); test: competition ELISA, hMET-Fc in solid phase, competitor 0.3 nM biotinylated hHGF
T5 construct: extracellular domain; bought chimeric protein; also called hMET; not shown: Fc portion of human IgG1
Experimental: (§4) To investigate along this line, we tested the competition between mAbs and HGF by ELISA. Recombinant human and mouse HGF (R&D Systems) were biotinylated at the N-terminus using NHS-LC-biotin (Thermo Scientific). MET-Fc protein, either human or mouse (R&D Systems), was immobilized in solid phase and then exposed to 0.3 nM biotinylated HGF, either human or mouse, in the presence of increasing concentrations of antibodies (0-120 nM).
(§5) A MET-Fc chimeric protein (either human or mouse) was immobilized in solid phase and exposed to a fixed concentration of biotinylated HGF (either human or mouse), in the presence of increasing concentrations of antibodies. […] Antibody-HGF competition is expressed as IC₅₀ (the concentration that achieves 50% competition) and IMAX (the maximum % competition reached at saturation).

[12] = biological target: T6, mouse MET-Fc (R&D Systems) (mouse, UniProt P16056 25-929, limits assumed); test: competition ELISA, mMET-Fc in solid phase, competitor 0.3 nM biotinylated mHGF
T6 construct: bought chimeric protein; also called mMET; not shown: Fc part
Experimental: as §4, §5

T3 sequence (P08581 25-932 limits assumed, form in doubt): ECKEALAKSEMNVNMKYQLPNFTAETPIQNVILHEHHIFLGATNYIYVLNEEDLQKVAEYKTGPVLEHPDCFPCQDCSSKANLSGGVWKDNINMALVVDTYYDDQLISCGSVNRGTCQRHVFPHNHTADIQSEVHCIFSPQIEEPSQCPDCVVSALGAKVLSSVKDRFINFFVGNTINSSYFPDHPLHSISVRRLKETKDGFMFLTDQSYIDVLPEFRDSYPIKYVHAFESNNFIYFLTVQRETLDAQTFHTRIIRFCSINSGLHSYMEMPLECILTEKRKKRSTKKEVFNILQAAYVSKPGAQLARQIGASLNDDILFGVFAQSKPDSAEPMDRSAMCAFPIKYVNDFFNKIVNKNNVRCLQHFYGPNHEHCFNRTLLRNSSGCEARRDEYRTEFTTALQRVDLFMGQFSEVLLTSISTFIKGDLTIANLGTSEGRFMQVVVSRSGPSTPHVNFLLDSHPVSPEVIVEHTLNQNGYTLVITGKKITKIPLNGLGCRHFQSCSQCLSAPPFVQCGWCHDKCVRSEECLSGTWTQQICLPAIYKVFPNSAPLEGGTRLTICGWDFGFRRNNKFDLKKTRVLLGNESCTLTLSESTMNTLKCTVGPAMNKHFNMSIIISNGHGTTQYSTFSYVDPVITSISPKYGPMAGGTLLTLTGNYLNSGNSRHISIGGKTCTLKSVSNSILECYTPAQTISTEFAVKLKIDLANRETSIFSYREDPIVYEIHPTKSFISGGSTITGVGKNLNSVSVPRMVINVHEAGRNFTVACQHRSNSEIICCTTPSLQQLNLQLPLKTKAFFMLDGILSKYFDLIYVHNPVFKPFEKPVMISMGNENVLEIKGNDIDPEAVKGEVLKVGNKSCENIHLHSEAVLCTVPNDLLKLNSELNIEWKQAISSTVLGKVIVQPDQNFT
T5 sequence (P08581 25-932): as the sequence (P08581 25-932 limits assumed, form in doubt) above
T2 sequence (P08581 25-1390): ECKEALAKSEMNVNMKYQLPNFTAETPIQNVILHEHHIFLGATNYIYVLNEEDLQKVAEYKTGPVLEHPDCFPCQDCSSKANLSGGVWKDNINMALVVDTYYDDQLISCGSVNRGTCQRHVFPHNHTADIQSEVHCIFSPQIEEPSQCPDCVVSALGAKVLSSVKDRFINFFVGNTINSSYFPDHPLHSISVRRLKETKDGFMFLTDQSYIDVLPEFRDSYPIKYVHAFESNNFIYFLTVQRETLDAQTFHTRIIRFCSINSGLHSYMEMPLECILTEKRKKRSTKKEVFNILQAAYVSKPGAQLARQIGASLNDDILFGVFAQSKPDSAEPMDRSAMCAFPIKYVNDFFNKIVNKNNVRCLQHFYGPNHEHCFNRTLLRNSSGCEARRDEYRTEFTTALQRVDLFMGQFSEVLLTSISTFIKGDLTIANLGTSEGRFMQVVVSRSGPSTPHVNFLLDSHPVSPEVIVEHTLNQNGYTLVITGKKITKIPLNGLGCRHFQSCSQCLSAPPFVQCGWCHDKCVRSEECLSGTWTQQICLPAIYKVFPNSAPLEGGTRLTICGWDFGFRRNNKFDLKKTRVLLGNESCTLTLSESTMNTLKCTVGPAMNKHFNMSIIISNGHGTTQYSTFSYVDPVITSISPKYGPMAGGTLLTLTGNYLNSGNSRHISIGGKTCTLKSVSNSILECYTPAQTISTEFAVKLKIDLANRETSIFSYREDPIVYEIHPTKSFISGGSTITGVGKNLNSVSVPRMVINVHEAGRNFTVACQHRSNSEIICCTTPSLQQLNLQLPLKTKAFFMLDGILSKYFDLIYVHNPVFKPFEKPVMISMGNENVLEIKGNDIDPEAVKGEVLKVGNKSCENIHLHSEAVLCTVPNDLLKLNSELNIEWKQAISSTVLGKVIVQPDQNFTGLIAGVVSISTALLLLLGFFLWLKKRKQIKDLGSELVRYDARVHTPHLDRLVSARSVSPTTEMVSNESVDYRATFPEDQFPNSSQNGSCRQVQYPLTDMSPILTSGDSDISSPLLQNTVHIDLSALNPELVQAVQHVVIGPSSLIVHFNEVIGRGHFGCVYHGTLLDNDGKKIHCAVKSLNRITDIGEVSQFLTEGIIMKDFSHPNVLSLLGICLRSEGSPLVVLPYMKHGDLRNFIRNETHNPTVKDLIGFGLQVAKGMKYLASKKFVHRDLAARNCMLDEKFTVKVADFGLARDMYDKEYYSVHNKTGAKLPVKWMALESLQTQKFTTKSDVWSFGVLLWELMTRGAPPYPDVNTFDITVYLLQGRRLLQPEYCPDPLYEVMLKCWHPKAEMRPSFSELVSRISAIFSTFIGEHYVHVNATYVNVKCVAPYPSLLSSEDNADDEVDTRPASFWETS

- phospho-MET ELISA EC50, MLP29 cells [1]: 0.23 nM
- phospho-MET ELISA EMAX (% HGF activity), MLP29 cells [1]: 100%
- scatter score 0-4, MLP29, 0.001 nM [2]: 0 score
- scatter score 0-4, MLP29, 0.004 nM [2]: 1 score
- scatter score 0-4, MLP29, 0.012 nM [2]: 2 score
- scatter score 0-4, MLP29, 0.037 nM [2]: 3 score
- scatter score 0-4, MLP29, 0.111 nM [2]: 4 score
- scatter score 0-4, MLP29, 0.333 nM [2]: 4 score
- scatter score 0-4, MLP29, 1.000 nM [2]: 4 score
- scatter score 0-4, MLP29, 3.000 nM [2]: 4 score
- scatter score 0-4, MLP29, 9.000 nM [2]: 4 score
- branches per spheroid, MLP29 cells, 0.5 nM [4]: 32.3 branches
- branches per spheroid, MLP29 cells, 2.5 nM [4]: 43.7 branches
- branches per spheroid, MLP29 cells, 12.5 nM [4]: 36 branches
B1: recombinant mouse HGF (R&D Systems) (ligand, UniProt Q08048 33-728, looked up)
chain: QKKRRNTLHEFKKSAKTTLTKEDPLLKIKTKKVNSADECANRCIRNRGFTFTCKAFVFDKSRKRCYWYPFNSMSSGVKKGFGHEFDLYENKDYIRNCIIGKGGSYKGTVSITKSGIKCQPWNSMIPHEHSFLPSSYRGKDLQENYCRNPRGEEGGPWCFTSNPEVRYEVCDIPQCSEVECMTCNGESYRGPMDHTESGKTCQRWDQQTPHRHKFLPERYPDKGFDDNYCRNPDGKPRPWCYTLDPDTPWEYCAIKTCAHSAVNETDVPMETTECIQGQGEGYRGTSNTIWNGIPCQRWDSQYPHKHDITPENFKCKDLRENYCRNPDGAESPWCFTTDPNIRVGYCSQIPKCDVSSGQDCYRGNGKNYMGNLSKTRSGLTCSMWDKNMEDLHRHIFWEPDASKLNKNYCRNPDDDAHGPWCYTGNPLIPWDYCPISRCEGDTTPTIVNLDHPVISCAKTKQLRVVNGIPTQTTVGWMVSLKYRNKHICGGSLIKESWVLTARQCFPARNKDLKDYEAWLGIHDVHERGEEKRKQILNISQLVYGPEGSDLVLLKLARPAILDNFVSTIDLPSYGCTIPEKTTCSIYGWGYTGLINADGLLRVAHLYIMGNEKCSQHHQGKVTLNESELCAGAEKIGSGPCEGDYGGPLICEQHKMRMVLGVIVPGRGCAIPNRPGIFVRVAYYAKWIHKVILTYKL
modifications: biotinylated at the N-terminus using NHS-LC-biotin (in the competition ELISAs only)
- protection from staurosporine, viability EC50, MLP29 cells [3]: 5.35 nM
- protection from staurosporine, viability EMAX, MLP29 cells [3]: 58.6%

- phospho-MET ELISA EC50, A549 cells [5]: 2.48 nM
- phospho-MET ELISA EMAX (% HGF activity), A549 cells [5]: 70.6%
- phospho-MET ELISA EC50, MLP29 cells [1]: 2.01 nM
- phospho-MET ELISA EMAX (% HGF activity), MLP29 cells [1]: 75.4%
- scatter score 0-4, HPAF-II, 0.001 nM [6]: 0 score
- scatter score 0-4, HPAF-II, 0.004 nM [6]: 0 score
- scatter score 0-4, HPAF-II, 0.012 nM [6]: 0 score
- scatter score 0-4, HPAF-II, 0.037 nM [6]: 0 score
- scatter score 0-4, HPAF-II, 0.111 nM [6]: 0 score
- scatter score 0-4, HPAF-II, 0.333 nM [6]: 1 score
- scatter score 0-4, HPAF-II, 1.000 nM [6]: 2 score
- scatter score 0-4, HPAF-II, 3.000 nM [6]: 2 score
- scatter score 0-4, HPAF-II, 9.000 nM [6]: 3 score
- scatter score 0-4, MLP29, 0.001 nM [2]: 0 score
- scatter score 0-4, MLP29, 0.004 nM [2]: 0 score
- scatter score 0-4, MLP29, 0.012 nM [2]: 0 score
- scatter score 0-4, MLP29, 0.037 nM [2]: 0 score
- scatter score 0-4, MLP29, 0.111 nM [2]: 0 score
- scatter score 0-4, MLP29, 0.333 nM [2]: 1 score
- scatter score 0-4, MLP29, 1.000 nM [2]: 2 score
- scatter score 0-4, MLP29, 3.000 nM [2]: 2 score
- scatter score 0-4, MLP29, 9.000 nM [2]: 3 score
- branches per spheroid, LOC cells, 0.5 nM [8]: 7 branches
- branches per spheroid, LOC cells, 2.5 nM [8]: 15.3 branches
- branches per spheroid, LOC cells, 12.5 nM [8]: 16 branches
- branches per spheroid, MLP29 cells, 0.5 nM [4]: 14 branches
- branches per spheroid, MLP29 cells, 2.5 nM [4]: 14.7 branches
- branches per spheroid, MLP29 cells, 12.5 nM [4]: 22.7 branches
- EC50 [9]: 2.29 nM
- EMAX [9]: 110 % relative to control
- EC50 [10]: 2.54 nM
- EMAX [10]: 121 % relative to control
- EC50 (human MET ECD): 0.106 nM
- EMAX (OD450) (human MET ECD): 3.08 AU
- EC50 (mouse MET ECD): 0.127 nM
- EMAX (OD450) (mouse MET ECD): 2.97 AU
- IC50 [11]: 3.87 nM
- IMAX [11]: 51.4%
- IC50 [12]: 4.05 nM
- IMAX [12]: 50.7%
B2: 71G12 chimeric llama-human IgG1 mAb (antibody, V domains shown)
VH: QVQLQESGGDLVQPGGSLRVSCVVSGFTFSRYYMSWVRQAPGKGLEWVSSIDSYGYSTYYTDSVKGRFTISRDNAKNTLYLQMNSLKPEDTALYYCARAKTTWSYDYWGQGTQVTVSS
VL: EIVLTQSPSSVTASVGGKVTINCKSSQSVFIASNQKTYLNWYQQRPGQSPRLVISYASTRESGIPDRFSGSGSTTDFTLTISSVQPEDAAVYYCQQAYSHPTFGQGTKVELK
notes: llama VH on human IgG1 CH1-CH2-CH3, llama VL on human kappa CL
- protection from staurosporine, viability EC50, MCF10A cells [7]: > 32 nM
- protection from staurosporine, viability EMAX, MCF10A cells [7]: 39.4%
- protection from staurosporine, viability EC50, MLP29 cells [3]: > 32 nM
- protection from staurosporine, viability EMAX, MLP29 cells [3]: 39.7%

- phospho-MET ELISA EC50, A549 cells [5]: 1.86 nM
- phospho-MET ELISA EMAX (% HGF activity), A549 cells [5]: 62.3%
- phospho-MET ELISA EC50, MLP29 cells [1]: 1.19 nM
- phospho-MET ELISA EMAX (% HGF activity), MLP29 cells [1]: 71.5%
- scatter score 0-4, HPAF-II, 0.001 nM [6]: 0 score
- scatter score 0-4, HPAF-II, 0.004 nM [6]: 0 score
- scatter score 0-4, HPAF-II, 0.012 nM [6]: 0 score
- scatter score 0-4, HPAF-II, 0.037 nM [6]: 0 score
- scatter score 0-4, HPAF-II, 0.111 nM [6]: 0 score
- scatter score 0-4, HPAF-II, 0.333 nM [6]: 0 score
- scatter score 0-4, HPAF-II, 1.000 nM [6]: 1 score
- scatter score 0-4, HPAF-II, 3.000 nM [6]: 2 score
- scatter score 0-4, HPAF-II, 9.000 nM [6]: 3 score
- scatter score 0-4, MLP29, 0.001 nM [2]: 0 score
- scatter score 0-4, MLP29, 0.004 nM [2]: 0 score
- scatter score 0-4, MLP29, 0.012 nM [2]: 0 score
- scatter score 0-4, MLP29, 0.037 nM [2]: 0 score
- scatter score 0-4, MLP29, 0.111 nM [2]: 0 score
- scatter score 0-4, MLP29, 0.333 nM [2]: 0 score
- scatter score 0-4, MLP29, 1.000 nM [2]: 1 score
- scatter score 0-4, MLP29, 3.000 nM [2]: 2 score
- scatter score 0-4, MLP29, 9.000 nM [2]: 3 score
- branches per spheroid, LOC cells, 0.5 nM [8]: 6.7 branches
- branches per spheroid, LOC cells, 2.5 nM [8]: 13.3 branches
- branches per spheroid, LOC cells, 12.5 nM [8]: 16.3 branches
- branches per spheroid, MLP29 cells, 0.5 nM [4]: 14.7 branches
- branches per spheroid, MLP29 cells, 2.5 nM [4]: 18.7 branches
- branches per spheroid, MLP29 cells, 12.5 nM [4]: 24.7 branches
- EC50 [9]: 2.3 nM
- EMAX [9]: 121 % relative to control
- EC50 [10]: 2.37 nM
- EMAX [10]: 115 % relative to control
- EC50 (human MET ECD): 0.128 nM
- EMAX (OD450) (human MET ECD): 2.62 AU
- EC50 (mouse MET ECD): 0.103 nM
- EMAX (OD450) (mouse MET ECD): 2.78 AU
- IC50 [11]: 1.47 nM
- IMAX [11]: 69.4%
- IC50 [12]: 1.56 nM
- IMAX [12]: 62.5%
B3: 76G7 chimeric llama-human IgG1 mAb (antibody, V domains shown)
VH: QVQLVESGGNLVQPGGSLRLSCAASGFTFSNYYMSWVRQAPGKGLEWVSDIYSDGSTTWYSDSVKGRFTISRDNAKNTLSLQMNSLKSEDTAVYYCARVKIYPGGYDAWGQGTQVTVSS
VL: QAGLTQPPSVSGSPGKTVTISCAGNSSDVGYGNYVSWYQQFPGMAPKLLIYLVNKRASGITDRFSGSKSGNTASLTISGLQSEDEADYYCASYTGSNNIVFGGGTHLTVL
notes: llama VH on human IgG1 CH1-CH2-CH3, llama VL on human lambda CL
- protection from staurosporine, viability EC50, MCF10A cells [7]: 25.4 nM
- protection from staurosporine, viability EMAX, MCF10A cells [7]: 51.9%
- protection from staurosporine, viability EC50, MLP29 cells [3]: 30.1 nM
- protection from staurosporine, viability EMAX, MLP29 cells [3]: 50.2%
